US20050244894A1

Biological target: procaspase-3 (endogenous, in cytosolic extract of 293T cells) (human) (UniProt P42574)
Assay: cell-based or functional assay

procaspase-3 (endogenous, in cytosolic extract of 293T cells) (human), sequence (P42574 whole entry): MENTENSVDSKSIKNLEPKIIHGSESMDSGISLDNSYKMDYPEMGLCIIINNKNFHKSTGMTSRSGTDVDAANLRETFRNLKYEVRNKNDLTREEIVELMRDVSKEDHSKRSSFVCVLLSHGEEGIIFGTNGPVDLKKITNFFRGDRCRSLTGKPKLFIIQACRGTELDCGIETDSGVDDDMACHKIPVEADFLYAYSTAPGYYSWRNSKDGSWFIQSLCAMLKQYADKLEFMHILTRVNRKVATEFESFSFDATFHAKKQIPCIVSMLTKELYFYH

Substance: granzyme B (enzyme)
- DEVDase activity of cytosolic extract of NK1R-transfected 293T cells: 7 fold
